# From the DeepSol protein solubility set
# Assay: soluble on expression in E. coli; label from the status in PepcDB or PDB records
row,Sequence,soluble on expression in E. coli
1,MSLKKKVVIVGGGFTGLNTARILSNRKDVEVTLIDRKNYHLFQPLLYQVAMAALGEGDIATPLRNMLAGYDNVTVFKGNVCNVDLEQKKVKTDFGDIEYDYLVLACGAQHHYFGKNDWEEHAPGLKNLAQASEIRRRVMEAYEAAERTNDMKERKKQLTFVIVGGGPTGVELAGSIGEMSRYTLSKFYRHIDPKLTRIFIVEAAERILGTFSPELSSKATRELEKLGVQVWTSSMVSDVDADGVQIGRERIEAATVLWAAGVKASEIGQNMGVQTDRSGRIMVEADLSLPGHPEVFVGGDQACYTLENGSTLPGMAPVAMQEGKAIGRMILDDLKGKPRKPFKYRDKGQMATIGRNRAIVEIGNLKFDGEGHHHHHH,soluble
2,GHMAKAYKQAGVDIEAGYQAVALMKEHVQKTMRPEVLGGIGGFGGLFDLSALGYRQPVLISGTDGVGTKLKLAFLLDRHDTIGIDCVAMCVNDIIVQGAEPLFFLDYIACGKAVPEKIAAIVKGVADGCVEAGCALIGGETAEMPGMYDEDEYDLAGFAVGVAEKERLITGETIQAGDALVGLPSSGLHSNGYSLVRRIVFEQAKLSLDEIYEPLDVPLGEELLKPTRIYAKLLRSVRERFTIKGMAHITGGGLIENIPRMLPPGIGARIQLGSWPILPIFDFLREKGSLEEEEMFSVFNMGIGLVLAVSPETAAPLVEWLSERGEPAYIIGEVAKGAGVSFAGGGRA,soluble
3,DKQKALKKIAKCLELGNSANINEAANAIKMAHNLMLKYGLDKDDIEFIKMGKTQSTHLLPAAISSGILRVIRGINTRFGVEAVLLNHKGLKRVEFIGEADRAIFAAFAFDIIYREMNEQTGQFRNSFAGTGTSSLEVTRRVNSFVSGWIEGALEKLPIITPDEDSMNKINSYIDKEFENIDRETFKQQLREAMKNLTEDYETGLKKGRRVSVNRPIHGAQAPKLLK,not soluble
4,MSLKPTVWHHLRLCPHGHPDETIDDAAIAVDETGTIVWLGAVSALPHGYAHWRREDLHGAWVTPGLVDCHTHLVYGGTRADEFAQRLAGVSYEEIARQGGGIVSTVRATRAADETTLFVQAAARLQPLLAEGVTAIEIKSGYGLDLASERKMLRVARQLGERFPVTVYTTFLGAHALPPEYAGRADAYIDEVCDRMLPALADEGLVDAVDVFCERIGFSLAQTERVFEAATRRGLPVKLHAEQLSNAGGTALAARYRALSADHLEFLDEAGIEAMKAAGTVAVLLPGAYYFIRETQLPPIELLRKHGVPIALATDHNPGTSPLESLLLTLNMGCTLFRMTVPEVLQGVTCHAAAALGRADRHGALEVGRQADFAAWSVGSLAELAYWIGRPLCEQVVRGGTTVFRRMNGEGHHHHHH,soluble
5,MGKVYKKVELVGTSEEGLEAAIQAALARARKTLRHLDFFEVKEIRGTIGEAGVKEYQVVLEVGFRLEET,soluble
6,GHMTKLNQESTAPKVLFTGVVDARGERAVLALGGSLAGSAAEASHLVTDRIRRTVKFLCALGRGIPILSLDWLHQSRKAGFFLPPDEYVVTDPEQEKNFGFSLQDALSRARERRLLEGYEIYVTPGVQPPPPQMGEIISCCGGTYLPSMPRSYKPQRVVITCPQDFPHCSIPLRVGLPLLSPEFLLTGVLKQEAKPEAFVLSPLEMSST,soluble
7,MGHHHHHHHHHHSSGHIEGRHMANPLAGKPFYVDPASAAMVAARNANPPNAELTSVANTPQSYWLDQAFPPATVGGTVARYTGAAQAAGAMPVLTLYGIPHRDCGSYASGGFATGTDYRGWIDAVASGLGSSPATIIVEPDALAMADCLSPDQRQERFDLVRYAVDTLTRDPAAAVYVDAGHSRWLSAEAMAARLNDVGVGRARGFSLNVSNFYTTDEEIGYGEAISGLTNGSHYVIDTSRNGAGPAPDAPLNWCNPSGRALGAPPTTATAGAHADAYLWIKRPGESDGTCGRGEPQAGRFVSQYAIDLAHNAGQ,soluble
8,MSLSGKPITDQQIRLYVNERKQGQTQLAASAKSGLSERSGRRIDSGELNTEPTPKRQWRTRKDPLAEVWSSVLVPMLEANPELLPLTLFEYLHDNYPNQYDNTVLRTLQRRVKAWKVKHGPAKEVMFRQTKVPGRLGLSDFTLLKGVTITILGQVFCHLLYHYRLAFSGWTYAKVICGGESYTALSTGLQNALWRSGGAPLEHRTDSLSAAFNNLAEKEQMTVRYDALCHHYQLKGSRNNPGKSHENGTIEAAHGHLKRRMTQALLLRGDTDFTSLEAYQAFVDGIVTKINQQCRTRFEQERPLLQTLPKRRTHDYAEHSVLISSSSSFDLKRVTYTVPSRFIGERLYVQLYDERLDLFSGHEQIMSLPRVYATTTQRGRSVDYRHVIDSLVKKPGAFRYSQLRDDLLPTPDYHRIWQYVDGTLNPHDACRYIVRLLHLAATAQCQDSLGRYVLKSIEGGELPSNLQCNKRFSTDTAVIPLITAKQHLLADYDQLLCVEVQHGEGHHHHHH,not soluble
9,MLKKGNEMKAVIVYASVHHGNTKKIEEAMASVISADVIDVTRKIKPDLSGYDVIGFVSGVYFHTFHEGIKKCIEENMSSKGQKVFLVATCGLGYRDYTKGMKDTLAKKDVLCMGSFQCRGWDTYGIFGKIGGIAKKHPNDRDLKEAQEFVLKTVCKTNNLEHHHHHH,not soluble
10,MELLLYSLDNEGPIRFIQITDTHLVEAADGHLLGLETQNSLEHVLSSVQSENDQFDFFVVSGDISQDGSLSSYQRLHESLAPFNVPSFWFPGNHDEMSNMKVVCQDTEHLVNIIRTPHWQLVLLNSQVEGAVFGNLGDDQFELLERALTERPDLHTLISLHHHPIPMESNWMDKIGVKNGDKLMAMARKYPKVKCILWGHVHQDSDRMVDGIRMLSTPSTCVQFMPKSKDFNIDMIAPGYRRLQLNPDGSIETEMSRVEGIEFEVDLSVKGY,soluble
11,MWTATACSIDSSPSMWNCAEVMDSTRSELLQSTPEAEDGNIEYKLKLVNPSQYRFEHLVTQMKWRLQEGRGEAVYQIGVEDNGLLVGLAEEEMRASLKTLHRMAEKVGADITVLREREVDYDSDVPRKITEVLVRKVPDNQQFLDLRVAVLGNVDSGKSTLLGVLTQGELDNGRGRARLNLFRHLHEIQSGRTSSISFEILGFNSKGEVVNYSDSRTAEEICESSSKMITFIDLAGHHKYLHTTIFGLTSYCPDCALLLVSANTGIAGTTREHLGLALALKVPFFIVVSKVDLCAKTTVERTVRQLERVLKQPGCHKVPMLVTSEDDAVTAAQQFAQSPNVTPIFTLSSVSGESLDLLKVFLNILPPLTNSKEQEELMQQLTEFQVDEIYTVPEVGTVVGGTLSSGICREGDQLVVGPTDDGCFLELRVCSIQRNRSACRVLRAGQAATLALGDFDRALLRKGMVMVSPEMNPTICSVFEAEIVLLFHATTFRRGFQVTVHVGNVRQTAVVEKIHAKDKLRTGEKAVVRFRFLKHPEYLKVGAKLLFREGVTKGIGHVTDVQAITAGEAQATMGF,soluble
12,AIAMWQDQPMPSMDLVKNAFWNYVSQATLTAEETLQMIRNSELGQEINDRISKSTDAINKYTLAIQSQVTPLTQELLTKLSKEADQLKLSLEQEITSAQTQLKPYVEELKVDIEEQIERLKKDVAPYAEALNPEAMRLTLVQRAEELKAKLETSLMAMGPQSEELKQKLEQHFVEFQMSMSPLAESFQSQLAQRSQELQKNLAPYSEELSKLDPLAQDLKDQLTALWESFAKDKQS,soluble
13,MGSDKIHHHHHHAIGFGLSYGTEIESIGLGLKYQYNITNPIRLEPSLNYFIENDNVSMLDINMNLHYLCPVGRSVKLYPLFGFTFSNWMFDLGDGFDIDVDGDHIHIDKDDDNHNECRVGVNIGGGADFALTSSWIMNFELRYQLVSDFDQAVFNLGFAYRF,not soluble
14,RMMEGAIAIADLTVGDVMVPRSQMVSLPVESDLQTITKQMVESGHSRFPVHGENKDEVLGILLAKDLLRGVSANHTITNVHELLRPVGMIPESKKLNVLLKEFRLSHNHMAIVVDEYGGVAGLVTIEDILEQIVGDID,soluble
15,MNAMERENTVKSVRRALQIIEIVSTKKDGLGVTEIAKQMDINKSSVYRILTTLAQYGYIEQHPETERYKLGYKFLELSSKLLDSIDLRQEAKPYLRELEKETNEVIHLVVYDQGEVIYIEKLEGTETLRMHSKVGKRAPMHCTAVGKAILAHLPPAVAAEIIDRKGLPKHTDWTITDREAFFRELETVRQNGYALDLEENEYGIRCVAVPIFDYTGGVVAAISVSGPTIRMTDDRITSLTVRMRQIGKELSARLGYRGAHSVQL,soluble
16,LWVYPARKPRGKAIIMCPGGGFNQIASDHEGRDFAAWFNNQGITYAVLNYRMPHGDVEVIREDIREAIRLIRRQSAEWGIHQLGVMGASIGGYIAATAATLYTGTDRPDFQVLLYPVISMTDRLTHWPSRERMLGETISEGLKETLSLELHVTADTPPTFIVLAEDDQAVSPLNSIVYYTALLKHGVSAGLHIYPEGGHSFGFRDSFIYKELWTDELQKWL,not soluble
17,MSLAATGNASKPSLNSFYADGLGQLRNGLFSCFQPVFGYFGTKTTVEIEKSEDELWEIPFDAISELEWLGSGSQGAVFRGQLENRTVAVKKVNQLKETEIKHLRHLRHQNIIEFLGVCSKSPCYCIVMEYCSKGQLCTVLKSRNTITRELFAQWVKEIADGMHYLHQNKVIHRDLKSPNILISAEDSIKICDFGTSHMQKKMDSTMMSFCGTVSWMAPEMIKKQPCNEKVDVYSFGVVLWEMLTRETPYANIAQMAIIFGVGTNILSLPMPEEAPKGLVLLIKQCLSQKGRNRPSFSHIRQHWEIFKPELFEMTEEEWQLAWDSYREFAKCIQYPSTVTRDHGGPKSAFAMEEEIQRKRHEQLNHIKDIRNMYEMKLKRTNKMYDKLQGCFTELKLKESELAEWEKDLTEREGHHHHHH,not soluble
18,MGSDKIHHHHHHMAQQKPHDVNEPSRRRLLKGIGALGGALAITGGCPVAHAAKAESSPGTLTPDARQEKQPFYGRHQAGILTPQQASMMLVAFDVLAADKADLERLFRLLTQRIAFLTQGGPAPDTPNPRLPPMDSGILGPWIAPDNLTITVSVGHSLFDERFGLADKAPKKLQPMTRFPNDSLDAALCHGDLLLQICANTQDTVIHALRDVIKHTPDLLSVRWKREGFISDSAARSKGKETPINLLGFKDGTANPASHDSALMDKVVWVTADQDEPAWTVGGSYQAARIIQFHVEFWDRTPLKEQQTIFGRDKHTGAPLGMKNEHDTPDYSKDPNGEVIALDSHIRLANPRTPETQSSLMMRRGYSYSLGVTNAGQLDMGLLFVCYQHDLEKGFLTVQKRLNGEALEEYVKPIGGGYFFVLPGVVDEKHYLGESLLQA,not soluble
19,MGSDKIHHHHHHLGGGGIRPSHLLADEGGGPPYRPPAGRPVPSVPALMKLNAIEAGSAAADRVPLLILHGLLGSARNWGAVVKALGESRRVLALDLPNHGSSPWTEIMDYPFMARELASVIEHLGGRAAIMGHSMGGKAAMTLALSRPELVERLVVVDIAPVSYSHTFAPYIKAMRGVPLGEVSSRGEVEAALAGAIPDKGVRAFLMQNLEGGAGGYRWRPNLAVLGAHMDDILAFPHFPDDTAFQGPTLFVAGETSDYIRPAHEDVIAQFFPKAESVEIPGAGHWVHADNPSAFMSAIGSFL,not soluble
20,MTSTGPETSETPGATTQRHGFGIDVGGSGIKGGIVDLDTGQLIGDRIKLLTPQPATPLAVAKTIAEVVNGFGWRGPLGVTYPGVVTHGVVRTAANVDKSWIGTNARDTIGAELGGQQVTILNDADAAGLAETRYGAGKNNPGLVVLLTFGTGIGSAVIHNGTLIPNTEFGHLEVGGKEAEERAASSVKEKNDWTYPKWAKQVIRVLIAIENAIWPDLFIAGGGISRKADKWVPLLENRTPVVPAALQNTAGIVGAAMASVADTTH,not soluble
